Reference: patent US20240228562A1 (Pieris, published 2024)
Residue numbers refer to the chain shown, from its start.

T1: mouse CTGF (Abbexa) (mouse, UniProt P29268 26-348, limits assumed)
T1 construct: also called Murine CTGF; mCTGF
T1 sequence (looked up): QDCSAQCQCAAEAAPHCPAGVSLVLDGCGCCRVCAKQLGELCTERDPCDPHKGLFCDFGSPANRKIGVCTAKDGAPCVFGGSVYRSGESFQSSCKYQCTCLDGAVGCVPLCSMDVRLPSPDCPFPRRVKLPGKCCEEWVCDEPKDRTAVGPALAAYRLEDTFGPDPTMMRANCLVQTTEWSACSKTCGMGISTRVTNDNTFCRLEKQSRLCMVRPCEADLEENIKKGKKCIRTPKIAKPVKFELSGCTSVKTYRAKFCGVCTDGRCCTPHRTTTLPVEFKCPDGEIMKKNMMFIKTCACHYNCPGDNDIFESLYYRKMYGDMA

T2: recombinant rat CTGF protein (R&D Systems) (rat, UniProt Q9R1E9 25-347)
T2 construct: Bought; also called rCTGF
T2 sequence: T1 sequence (looked up) with H16R, A148V

B1: lipocalin mutein of SEQ ID NO: 18 (designed binder)
chain: QDSTSDLIPAPPLSKVPLQQNFQDNQFQGKWYVVGIAGNAILRDDKYPAKMFATIYELKEDKSYDVTSVRFENKSCIYTIKTFVPGSQPGEFTHGNIKSHPGQTSTLVRVVSTNYNQHAMVFFKHVSQNREIFVITLYGRTKELTSELKENFIRFSKSLGLPENHIVFPVPIDQCIDG
notes: also called hNGAL mutein; not shown: C-terminal His-tag
B2: lipocalin mutein of SEQ ID NO: 21 (designed binder)
chain: QDSTSDLIPAPPLSKVPLQQNFQDNQFQGKWYVVGLAGNAILREDKQPAKMFATIYELKEDKSYDVTSVRFEAKSCSYTIKTFVPGSQPGEFTAGNIKSAPGQTSTLVRVVSTNYNQHAMVFFKAVRGARESFNIALYGRTKELTSELKENFIRFSKSLGLPENHIVFPVPIDQCIDG
notes: as for B1
B3: lipocalin mutein of SEQ ID NO: 19 (designed binder)
chain: B2 chain with F123H, R127S, G128Q, A129N, N134V, A136T
notes: as for B1
B4: lipocalin mutein of SEQ ID NO: 14 (designed binder)
chain: B1 chain with I36L, D44E, N73A, H94R, H100A
notes: as for B1
B5: lipocalin mutein of SEQ ID NO: 13 (designed binder)
chain: B1 chain with I36L, D44E, I77V, I80S, H94T, H100A, I132F
notes: as for B1
B6: lipocalin mutein of SEQ ID NO: 10 (designed binder)
chain: B2 chain with F123W, A125S, R127A, A129T
notes: as for B1
B7: lipocalin mutein of SEQ ID NO: 11 (designed binder)
chain: B2 chain with I80S, A125H, R127S, G128Q, A129N, S132T, N134V, A136T
notes: as for B1
B8: lipocalin mutein of SEQ ID NO: 30 (designed binder)
chain: QDSTSDLIPAPPLSKVPLQQNFQDNQFHGKWYVVGWAGNIKLREDKDPFKMSATIYELKEDKSYDVTEVVFEQKKCHYIIKTFVPGSQPGEFTLGDIKSPPGETSSLVRVVSTNYNQHAMVFFKKVFQNREFFWITLYGRTKELTSELKENFIRFSKSLGLPENHIVFPVPIDQCIDG
notes: also called optimized lipocalin mutein; hNGAL mutein
B9: lipocalin mutein of SEQ ID NO: 32 (designed binder)
chain: QDSTSDLIPAPPLSKVPLQQNFQDNQFQGKWYVVGWAGNVKLREDKQPFKMSATIYELKEDKSYDVTEVVFEQKKCHYIIKTFVPGSQPGEFTLSPISSSPGLVSHLVRVVSTNYNQHAMVFFKKVHQNREFFWITLYGRTKELTSELKENFIRFSKSLGLPENHIVFPVPIDQCIDG
notes: as for B1

What was measured:
Assay in all cases: SPR (Biacore)
[1] = molecular target: T3, recombinant human CTGF-Fc protein (Creative Biomart) (human)
T3 construct: Bought; also called human CTGF with a human IgG1 Fc Tag
T3 sequence (chain, as listed by the source limits assumed): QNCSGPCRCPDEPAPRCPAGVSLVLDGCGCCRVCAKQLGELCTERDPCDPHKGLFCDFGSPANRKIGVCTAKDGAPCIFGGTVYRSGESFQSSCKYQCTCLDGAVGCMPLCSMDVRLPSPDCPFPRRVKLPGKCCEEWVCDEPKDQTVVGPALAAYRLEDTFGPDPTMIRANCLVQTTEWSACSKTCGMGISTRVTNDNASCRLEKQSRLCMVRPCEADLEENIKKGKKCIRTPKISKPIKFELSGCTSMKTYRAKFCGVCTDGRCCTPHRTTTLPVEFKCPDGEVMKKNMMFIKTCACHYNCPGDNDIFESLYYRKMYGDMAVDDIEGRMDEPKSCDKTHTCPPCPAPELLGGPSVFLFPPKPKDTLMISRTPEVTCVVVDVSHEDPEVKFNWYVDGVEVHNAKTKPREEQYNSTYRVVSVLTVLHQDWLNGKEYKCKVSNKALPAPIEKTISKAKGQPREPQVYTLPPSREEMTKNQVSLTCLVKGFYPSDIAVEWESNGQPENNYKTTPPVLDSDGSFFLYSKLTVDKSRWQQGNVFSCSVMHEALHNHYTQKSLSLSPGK
Method: (§1) The binding of exemplary lipocalin muteins to human (Creative Biomart), cynomolgus, rat (R&D Systems) and mouse CTGF (Abbexa) was determined by SPR using a Biacore instrument (Cytiva, formerly GE Healthcare). Some targets were fused to a human IgG1 Fc tag, and captured via the anti-human IgG antibody kit, others were directly immobilized.
(§2) For some measurements, human CTGF with a human IgG1 Fc Tag or rat or murine CTGF without a tag were directly immobilized to a CM5 Chip. The carboxyl groups on the chip were activated using 1-ethyl-3-(3-dimethylaminopropyl)-carbodiimide (EDC) and N-hydroxysuccinimide (NHS). […] Residual non-reacted NHS-esters were blocked by passing a solution of 1 M ethanolamine across the surface. The reference channel was activated/deactivated. For the capture setting, targets with an IgG Fc Tag at 0.25-2.5 μg/mL in HBS-EP+ buffer were captured by the anti-human IgG-Fc antibody at the chip surface for 180 s at a flow rate of 10 μL/min.
(§3) The binding assay was carried out with a contact time of 180 s, a dissociation time of 900-3600 s and a flow rate of 30 μL/min. All measurements were performed at 25° C. […] For the directly immobilized targets, the same regeneration conditions were used. Prior to the protein measurements, three startup cycles were performed for conditioning purposes.

mouse CTGF (Abbexa) = molecular target: T1, mouse CTGF (Abbexa)
Method: as §1, §2, §3

[2] = molecular target: T2, recombinant rat CTGF protein (R&D …)
Method: as §1, §2, §3

| Binder | Kd [1] [nM] | koff [1] [s⁻¹] | kon [1] [M⁻¹ s⁻¹] | Kd (mouse CTGF (Abbexa)) [nM] | koff (mouse CTGF (Abbexa)) [s⁻¹] | kon (mouse CTGF (Abbexa)) [M⁻¹ s⁻¹] | Kd [2] [nM] | koff [2] [s⁻¹] | kon [2] [M⁻¹ s⁻¹] | binding result [1] |
| --- | --- | --- | --- | --- | --- | --- | --- | --- | --- | --- |
| B1 | 0.074 | 3.05e-06 | 40900 | – | – | – | – | – | – | – |
| B2 | 0.523 | 6.63e-05 | 127000 | 0.173 | 3.94e-05 | 228000 | – | – | – | – |
| B3 | 0.918 | 5.2e-05 | 56600 | 0.273 | 2.54e-05 | 93200 | – | – | – | – |
| B4 | 0.523 | 5.34e-05 | 102000 | 0.369 | 7.03e-05 | 190000 | – | – | – | – |
| B5 | 0.049 | 2.51e-06 | 51000 | – | – | – | – | – | – | – |
| B6 | 0.033 | 2.23e-06 | 67700 | – | – | – | 0.46 | 4.08e-05 | 88800 | – |
| B7 | 2.44 | 0.000108 | 44400 | 1.02 | 8.19e-05 | 80100 | – | – | – | – |
| B8 | – | – | – | – | – | – | – | – | – | binds |
| B9 | 0.587 | 6.39e-05 | 109000 | 1.98 | 0.000264 | 133000 | – | – | – | – |
